Reference: patent US20150307603A1 (MODIQUEST B V, published 2015)
Non-standard residues stand in square brackets, D forms with d. No end group written: not given here. Cit = NC(=O)NCCC[C@H](N)C(=O)O

What was measured:
CFC-1 [1] = target: T1, CFC-1; experiment: ELISA, Ab 0.4 ug/well
T1 construct: Positive control for anti-citrulline reactivity; also called cfc1 XG; Cfc1-peptide
Description: (§1) The resulting OD (y-axis) is a measure for antibody binding. H1-recombinant histone 1; H1/p2-huPAD2 recombinant histone 1; H1/p4-huPAD4 recombinant histone 1, and so forth (x-axis).

[2] = target: T2, huPAD4-deiminated human recombinant histone 2A (human); experiment: ELISA, Ab 0.4 ug/well
T2 construct: also called H2A/p4; histone 2A/p4
Description: as §1

[3] = target: T3, huPAD2-deiminated human recombinant histone 2A (human); experiment: ELISA, Ab 0.4 ug/well
T3 construct: also called H2A/p2; histone 2A/p2
Description: as §1

[4] = target: T4, huPAD4-deiminated human recombinant histone 3 (human); experiment: ELISA, Ab 0.4 ug/well
T4 construct: also called H3/p4
Description: as §1

[5] = target: T5, human recombinant histone 3 (human); experiment: ELISA, Ab 0.4 ug/well
T5 construct: Non-deiminated; also called H3
Description: as §1

[6] = target: T6, huPAD2-deiminated human recombinant histone 2B (human); experiment: ELISA, Ab 0.4 ug/well
T6 construct: also called H2B/p2
Description: as §1

[7] = target: human recombinant histone 4 (human, UniProt P62805 2-103); experiment: ELISA, Ab 0.4 ug/well
Description: as §1

[8] = target: T7, human recombinant histone 2A (human); experiment: ELISA, Ab 0.4 ug/well
T7 construct: Non-deiminated; also called H2A
Description: as §1

[9] = target: T8, huPAD4-deiminated human recombinant histone 2B (human); experiment: ELISA, Ab 0.4 ug/well
T8 construct: also called H2B/p4
Description: as §1

[10] = target: T9, huPAD2-deiminated human recombinant histone 3 (human); experiment: ELISA, Ab 0.4 ug/well
T9 construct: also called H3/p2; histone 3/p2
Description: as §1

CFC-1 [11] = target: T1, CFC-1; experiment: ELISA, Ab 0.016 ug/well
Experimental: (§2) Biotin and citrulline-containing peptides derived from fibrinogen and vimentin were immobilized on NEUTRAVIDIN®-coated 96-well ELISA plates (0.3 μg/well). CFC-1 and CFC-0 were coated at the same concentration and served as positive and negative controls, respectively, for specific anti-citrulline reactivity and as coating controls. Non-coated wells were used to test for aspecific binding of the antibodies. […] Detection of bound anti-citrulline antibodies was performed by incubating the wells with rabbit anti-human HRP (1:2000) for 1 hour at RT followed by incubation with TMB substrate. The resulting OD (y-axis) is a measure for antibody binding.
(§3) Biotin-labeled and citrulline-containing fibrinogen and vimentin peptides (Table 5) were also tested for reactivity with the therapeutic antibodies. Peptides were coated on 96-well NEUTRAVIDIN®-ELISA plates.

msFibα XH = target: T10, msFibα XH (mouse, X at position 15 = citrulline; biotin-labelled); experiment: ELISA, Ab 0.016 ug/well
T10 peptide: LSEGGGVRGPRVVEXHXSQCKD
Experimental: as §2, §3

msFibβ XG = target: T11, msFibβ XG (mouse, also: biotin-labelled); experiment: ELISA, Ab 0.016 ug/well
T11 construct: also called mouse fibrinogen β peptide
T11 peptide: EPTDSLDA[Cit]GHRPVDRR
Experimental: as §2, §3

huFibα XG = target: T12, huFibα XG (human, X at position 8 = citrulline; biotin-labelled); experiment: ELISA, Ab 0.016 ug/well
T12 peptide: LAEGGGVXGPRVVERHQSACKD
Experimental: as §2, §3

msVim XS/XL = target: T13, msVim XS/XL (mouse, also: biotin-labelled); experiment: ELISA, Ab 0.016 ug/well
T13 construct: also called mouse vimentin peptide
T13 peptide: YVT[Cit]SSAV[Cit]L[Cit]SSVP
Experimental: as §2, §3

msFibα XG = target: T14, msFibα XG (mouse, X at position 8 = citrulline; biotin-labelled); experiment: ELISA, Ab 0.016 ug/well
T14 peptide: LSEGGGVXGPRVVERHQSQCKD
Experimental: as §2, §3

huFibα XH = target: T15, huFibα XH (human, X at position 15 = citrulline; biotin-labelled); experiment: ELISA, Ab 0.016 ug/well
T15 peptide: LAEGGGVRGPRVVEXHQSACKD
Experimental: as §2, §3

CFC-1 [12] = target: T1, CFC-1; experiment: ELISA, Ab 0.016 ug/well; remark: listed apart in the source
Experimental: as §2, with “histone 2A” for “fibrinogen and vimentin”

[13] = target: T16, peptide no. 5 (human histone 2A) (human, also: biotin-labelled); experiment: ELISA, Ab 0.016 ug/well
T16 construct: also called peptide 5
T16 peptide: VGRVH[Cit]LLRKGN
Experimental: as §2, with “histone 2A” for “fibrinogen and vimentin”

[14] = target: T17, peptide no. 3 (human histone 2A) (human, also: biotin-labelled); experiment: ELISA, Ab 0.016 ug/well
T17 construct: also called peptide 3
T17 peptide: KSRSS[Cit]AGLQFP
Experimental: as §2, with “histone 2A” for “fibrinogen and vimentin”

[15] = target: T18, peptide no. 4 (human histone 2A) (human, also: biotin-labelled); experiment: ELISA, Ab 0.016 ug/well
T18 construct: also called peptide 4
T18 peptide: QFPVG[Cit]VHRLLR
Experimental: as §2, with “histone 2A” for “fibrinogen and vimentin”

[16] = target: T19, peptide no. 8 (human histone 2A) (human, also: biotin-labelled); experiment: ELISA, Ab 0.016 ug/well
T19 construct: also called peptide 8
T19 peptide: AGNAA[Cit]DNKKTR
Experimental: as §2, with “histone 2A” for “fibrinogen and vimentin”

[17] = target: T20, peptide no. 1 (human histone 2A) (human, also: biotin-labelled); experiment: ELISA, Ab 0.016 ug/well
T20 construct: also called peptide 1; AAASGXGKQGGK
T20 peptide: AAASG[Cit]GKQGGK
Experimental: as §2, with “histone 2A” for “fibrinogen and vimentin”

[18] = target: T21, peptide no. 11 (human histone 2A) (human, also: biotin-labelled); experiment: ELISA, Ab 0.016 ug/well
T21 construct: also called peptide 11
T21 peptide: LQLAI[Cit]NDEELN
Experimental: as §2, with “histone 2A” for “fibrinogen and vimentin”

[19] = target: T22, peptide no. 12 (human histone 2A) (human, also: biotin-labelled); experiment: ELISA, Ab 0.016 ug/well
T22 construct: also called peptide 12
T22 peptide: NKLLG[Cit]VTIAQG
Experimental: as §2, with “histone 2A” for “fibrinogen and vimentin”

[20] = target: T23, peptide no. 9 (human histone 2A) (human, also: biotin-labelled); experiment: ELISA, Ab 0.016 ug/well
T23 construct: also called peptide 9
T23 peptide: DNKKT[Cit]IIPRHL
Experimental: as §2, with “histone 2A” for “fibrinogen and vimentin”

[21] = target: T24, peptide no. 6 (human histone 2A) (human, also: biotin-labelled); experiment: ELISA, Ab 0.016 ug/well
T24 construct: also called peptide 6
T24 peptide: VHRLL[Cit]KGNYSE
Experimental: as §2, with “histone 2A” for “fibrinogen and vimentin”

B1: RhmAb2.102 (antibody, human IgG1, lambda)
heavy: not shown
light: QSVLTQPPSMSAAPGQKVTISCSGSSSNIGNNYVSWYQQVPGTAPKLLIYDDNKRPSGIPGRFSGSKSATSATLGITGLQAGDEADYYCGSWDDNLSVVLFGGGTKLTVLGQPKAAPSVTLFPPSSEELQANKATLVCLISDFYPGAVTVAWKADSSPVKAGVETTTPSKQSNNKYAASSYLSLTPEQWKSHRSYSCQVTHEGSTVEKTVAPTECS
notes: Human IgG1 lambda; also called Rhm2.102
- OD (CFC-1 [1]): 3.12 OD450
- OD [2]: 2.72 OD450
- OD [3]: 3.08 OD450
- OD [4]: 0.166 OD450
- OD [5]: 0.08 OD450
- OD [6]: 0.06 OD450
- OD [7]: 0.091 OD450
- OD [8]: 0.071 OD450
- OD [9]: 0.054 OD450
- OD [10]: 1.18 OD450
- OD (CFC-1 [11]): 1.22 OD450
- OD (msFibα XH): 0.081 OD450
- OD (msFibβ XG): 0.174 OD450
- OD (huFibα XG): 0.103 OD450
- OD (msVim XS/XL): 0.201 OD450
- OD (msFibα XG): 0.107 OD450
- OD (huFibα XH): 0.08 OD450
- OD (CFC-1 [12]): 1.46 OD450
- OD [13]: 0.065 OD450
- OD [14]: 0.07 OD450
- OD [15]: 0.084 OD450
- OD [16]: 0.063 OD450
- OD [17]: 0.843 OD450
- OD [18]: 0.069 OD450
- OD [19]: 0.057 OD450
- OD [20]: 0.064 OD450
- OD [21]: 0.075 OD450
